Assay results reported in US20220211812A1 (Bristol-Myers Squibb, published 2022).
Square brackets hold non-standard residues; d marks the D form. Ends that are not written are not given here. Phe(4-Ac) = CC(=O)c1ccc(C[C@H](N)C(=O)O)cc1

T1: human RXFP1 receptor (human, UniProt Q9HBX9 1-757)
T1 sequence (looked up): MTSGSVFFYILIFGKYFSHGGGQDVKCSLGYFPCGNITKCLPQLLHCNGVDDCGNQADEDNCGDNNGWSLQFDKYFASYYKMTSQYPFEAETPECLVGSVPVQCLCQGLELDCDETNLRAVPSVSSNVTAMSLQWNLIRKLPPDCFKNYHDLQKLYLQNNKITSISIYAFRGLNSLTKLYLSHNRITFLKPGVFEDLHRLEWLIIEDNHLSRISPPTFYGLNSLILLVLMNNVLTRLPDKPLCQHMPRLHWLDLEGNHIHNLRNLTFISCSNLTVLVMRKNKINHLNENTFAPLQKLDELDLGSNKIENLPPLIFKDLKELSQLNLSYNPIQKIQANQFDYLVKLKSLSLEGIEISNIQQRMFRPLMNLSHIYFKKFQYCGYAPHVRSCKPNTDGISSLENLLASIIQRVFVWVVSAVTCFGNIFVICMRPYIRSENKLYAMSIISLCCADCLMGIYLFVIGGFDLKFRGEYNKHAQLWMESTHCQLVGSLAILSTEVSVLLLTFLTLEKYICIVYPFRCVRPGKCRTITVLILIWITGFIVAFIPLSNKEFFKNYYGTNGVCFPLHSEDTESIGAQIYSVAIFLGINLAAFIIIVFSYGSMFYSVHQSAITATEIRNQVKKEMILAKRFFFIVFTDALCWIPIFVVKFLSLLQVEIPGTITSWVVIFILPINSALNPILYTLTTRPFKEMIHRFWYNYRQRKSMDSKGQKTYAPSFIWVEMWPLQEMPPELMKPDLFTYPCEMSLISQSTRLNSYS


target: T1, human RXFP1 receptor; experiment: cell-based or functional assay

Binder	hRXFP1/CHO-K1 cAMP EC50 (nM, avg) [nM]
AQ1-EEEGGG-dGlu^γ-C13-COOH (ligand, not fully specified; dGlu^γ = D-glutamic acid (gamma), linked to fatty acid -C13-COOH; oxime-linked to pAcF of the A chain; pAcF (para-acetyl-L-phenylalanine) at position 1, oxime-linked to PK enhancer EEEGGG-dGlu^γ-C13-COOH) chain 1: XLYSALANKCCHVGCTKRSLARFC chain 2: ASWMEEVIKLCGRELVRAQIAICGMSTWS peptide: EEEGGGE	1.91
BM25/AN1-C13-CH3 (ligand, disulfide (positions not given here); not fully specified (some residues); ends not checked; also: PK enhancer C13-CH3 oxime-linked to pAcF25) chain 1: NLYSALANKCCHVGCTKRSLARFC chain 2: ASWMEEVIKLCGRELVRAQIAICG[Phe(4-Ac)]STWS	1.85
AQ1-Sar-Sar-Sar-Sar-Ser-Glu^γ-C13-COOH (ligand, not fully specified; Sar = sarcosine (N-methylglycine); Glu^γ bonded by amide to fatty acid -C13-COOH; oxime-linked to pAcF of the A chain; pAcF (para-acetyl-L-phenylalanine) at position 1, oxime-linked to PK enhancer Sar-Sar-Sar-Sar-Ser-Glu^γ-C13-COOH) chain 1: XLYSALANKCCHVGCTKRSLARFC chain 2: ASWMEEVIKLCGRELVRAQIAICGMSTWS peptide: XXXXSE	0.32
AQ1-DRDDRD-C13-COOH (ligand, linked to fatty acid -C13-COOH; oxime-linked to pAcF of the A chain; pAcF (para-acetyl-L-phenylalanine) at position 1, oxime-linked to PK enhancer DRDDRD-C13-COOH) chain 1: XLYSALANKCCHVGCTKRSLARFC chain 2: ASWMEEVIKLCGRELVRAQIAICGMSTWS peptide: DRDDRD	0.32
RLX-BM25/AN1 (ligand, disulfide (positions not given here); ends not checked) chain 1: NLYSALANKCCHVGCTKRSLARFC chain 2: ASWMEEVIKLCGRELVRAQIAICG[Phe(4-Ac)]STWS	0.09
AQ1-KKKSGGSGG-Glu^γ-C13-COOH (ligand, not fully specified; Glu^γ bonded by amide to fatty acid -C13-COOH; oxime-linked to pAcF of the A chain; pAcF (para-acetyl-L-phenylalanine) at position 1, oxime-linked to PK enhancer KKKSGGSGG-Glu^γ-C13-COOH) chain 1: XLYSALANKCCHVGCTKRSLARFC chain 2: ASWMEEVIKLCGRELVRAQIAICGMSTWS peptide: KKKSGGSGGE	0.14
AQ1-GSHHHHHGS-Glu^γ-C13-COOH (ligand, not fully specified; Glu^γ bonded by amide to fatty acid -C13-COOH; oxime-linked to pAcF of the A chain; pAcF (para-acetyl-L-phenylalanine) at position 1, oxime-linked to PK enhancer GSHHHHHGS-Glu^γ-C13-COOH) chain 1: XLYSALANKCCHVGCTKRSLARFC chain 2: ASWMEEVIKLCGRELVRAQIAICGMSTWS peptide: GSHHHHHGSE	0.28
AQ1-EEEGGG-Glu^γ-C17-COOH (ligand, not fully specified; Glu^γ bonded by amide to fatty acid -C17-COOH; oxime-linked to pAcF of the A chain; pAcF (para-acetyl-L-phenylalanine) at position 1, oxime-linked to PK enhancer EEEGGG-Glu^γ-C17-COOH) chain 1: XLYSALANKCCHVGCTKRSLARFC chain 2: ASWMEEVIKLCGRELVRAQIAICGMSTWS peptide: EEEGGGE	10.5
AQ1-EESGGSGG-Glu^γ-C13-COOH (ligand, not fully specified; Glu^γ bonded by amide to fatty acid -C13-COOH; oxime-linked to pAcF of the A chain; pAcF (para-acetyl-L-phenylalanine) at position 1, oxime-linked to PK enhancer EESGGSGG-Glu^γ-C13-COOH) chain 1: XLYSALANKCCHVGCTKRSLARFC chain 2: ASWMEEVIKLCGRELVRAQIAICGMSTWS peptide: EESGGSGGE	0.83
AQ1-RGGEEKKKEKEK-Glu^γ-C13-COOH (ligand, not fully specified; Glu^γ bonded by amide to fatty acid -C13-COOH; oxime-linked to pAcF of the A chain; pAcF (para-acetyl-L-phenylalanine) at position 1, oxime-linked to PK enhancer RGGEEKKKEKEK-Glu^γ-C13-COOH) chain 1: XLYSALANKCCHVGCTKRSLARFC chain 2: ASWMEEVIKLCGRELVRAQIAICGMSTWS peptide: RGGEEKKKEKEKE	0.29
AQ1-KKKKKK-Glu^γ-C13-COOH (ligand, not fully specified; Glu^γ bonded by amide to fatty acid -C13-COOH; oxime-linked to pAcF of the A chain; pAcF (para-acetyl-L-phenylalanine) at position 1, oxime-linked to PK enhancer KKKKKK-Glu^γ-C13-COOH) chain 1: XLYSALANKCCHVGCTKRSLARFC chain 2: ASWMEEVIKLCGRELVRAQIAICGMSTWS peptide: KKKKKKE	0.08
WT-RLX (ligand, disulfide (positions not given here); ends not checked) chain 1: QLYSALANKCCHVGCTKRSLARFC chain 2: ASWMEEVIKLCGRELVRAQIAICGMSTWS	0.12
AQ1-GETGSSGEGT-Glu^γ-C13-COOH (ligand, not fully specified; Glu^γ bonded by amide to fatty acid -C13-COOH; oxime-linked to pAcF of the A chain; pAcF (para-acetyl-L-phenylalanine) at position 1, oxime-linked to PK enhancer GETGSSGEGT-Glu^γ-C13-COOH) chain 1: XLYSALANKCCHVGCTKRSLARFC chain 2: ASWMEEVIKLCGRELVRAQIAICGMSTWS peptide: GETGSSGEGTE	0.65
AQ1-GGGEEE-Glu^γ-C13-COOH (ligand, not fully specified; Glu^γ bonded by amide to fatty acid -C13-COOH; oxime-linked to pAcF of the A chain; pAcF (para-acetyl-L-phenylalanine) at position 1, oxime-linked to PK enhancer GGGEEE-Glu^γ-C13-COOH) chain 1: XLYSALANKCCHVGCTKRSLARFC chain 2: ASWMEEVIKLCGRELVRAQIAICGMSTWS peptide: GGGEEEE	0.22
AQ1-GGGKKK-Glu^γ-C13-COOH (ligand, not fully specified; Glu^γ bonded by amide to fatty acid -C13-COOH; oxime-linked to pAcF of the A chain; pAcF (para-acetyl-L-phenylalanine) at position 1, oxime-linked to PK enhancer GGGKKK-Glu^γ-C13-COOH) chain 1: XLYSALANKCCHVGCTKRSLARFC chain 2: ASWMEEVIKLCGRELVRAQIAICGMSTWS peptide: GGGKKKE	0.19
AQ1-Sar-Sar-Sar-Glu-Glu-Glu^γ-C13-COOH (ligand, not fully specified; Sar = sarcosine (N-methylglycine); Glu^γ bonded by amide to fatty acid -C13-COOH; oxime-linked to pAcF of the A chain; pAcF (para-acetyl-L-phenylalanine) at position 1, oxime-linked to PK enhancer Sar-Sar-Sar-Glu-Glu-Glu^γ-C13-COOH) chain 1: XLYSALANKCCHVGCTKRSLARFC chain 2: ASWMEEVIKLCGRELVRAQIAICGMSTWS peptide: XXXEEE	0.59
